Paper PMC2756588

T1: Lsb1, P53281
T1 sequence (P53281 45-122, looked up): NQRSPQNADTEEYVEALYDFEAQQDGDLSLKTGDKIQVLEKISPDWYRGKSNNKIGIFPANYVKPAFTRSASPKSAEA

T2: Bzz1-2, P38822
T2 sequence (P38822 568-633, looked up): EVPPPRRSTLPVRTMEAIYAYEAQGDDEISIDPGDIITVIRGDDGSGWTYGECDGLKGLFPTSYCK

T3: Cdc25, P04821
T3 sequence (P04821 50-136, looked up): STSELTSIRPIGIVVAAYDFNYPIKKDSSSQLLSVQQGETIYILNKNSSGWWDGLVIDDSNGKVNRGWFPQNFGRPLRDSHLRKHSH

T4: Sla1-2, P32790
T4 sequence (P32790 60-140, looked up): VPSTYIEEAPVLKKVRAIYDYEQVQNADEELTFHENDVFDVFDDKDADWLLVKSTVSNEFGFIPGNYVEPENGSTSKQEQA

T5: Boi2, P39969
T5 sequence (P39969 32-116, looked up): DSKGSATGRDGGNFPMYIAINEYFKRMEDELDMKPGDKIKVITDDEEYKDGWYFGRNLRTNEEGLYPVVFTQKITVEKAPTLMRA

T6: Abp1, P15891
T6 sequence (P15891 535-592, looked up): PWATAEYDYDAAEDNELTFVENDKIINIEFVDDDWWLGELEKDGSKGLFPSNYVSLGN

T7: Bzz1-1, P38822
T7 sequence (P38822 478-572, looked up): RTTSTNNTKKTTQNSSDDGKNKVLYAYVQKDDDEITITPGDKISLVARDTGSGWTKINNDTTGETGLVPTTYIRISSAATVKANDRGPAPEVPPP

T8: Boi1, P38041
T8 sequence (P38041 1-86, looked up): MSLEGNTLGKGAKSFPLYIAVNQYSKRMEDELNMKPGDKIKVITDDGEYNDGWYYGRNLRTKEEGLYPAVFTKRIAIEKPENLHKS

T9: Pin3, Q06449
T9 sequence (Q06449 53-122, looked up): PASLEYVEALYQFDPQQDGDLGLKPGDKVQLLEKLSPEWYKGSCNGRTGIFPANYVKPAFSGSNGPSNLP

T10: Lsb3, P43603
T10 sequence (P43603 385-451, looked up): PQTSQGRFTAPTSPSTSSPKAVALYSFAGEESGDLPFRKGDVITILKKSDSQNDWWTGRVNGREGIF

T11: Hof1, Q05080
T11 sequence (Q05080 590-669, looked up): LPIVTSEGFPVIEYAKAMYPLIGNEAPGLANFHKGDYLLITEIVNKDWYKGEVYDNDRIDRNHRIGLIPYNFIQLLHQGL

T12: Pex13, P80667
T12 sequence (P80667 295-386, looked up): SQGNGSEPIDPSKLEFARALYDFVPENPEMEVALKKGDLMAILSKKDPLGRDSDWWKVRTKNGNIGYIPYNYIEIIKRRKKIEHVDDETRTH

T13: Nbp2, Q12163
T13 sequence (Q12163 103-180, looked up): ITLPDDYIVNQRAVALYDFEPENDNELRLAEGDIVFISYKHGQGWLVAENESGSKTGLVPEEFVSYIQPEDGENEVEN

T14: Hse1, P38753
T14 sequence (P38753 208-285, looked up): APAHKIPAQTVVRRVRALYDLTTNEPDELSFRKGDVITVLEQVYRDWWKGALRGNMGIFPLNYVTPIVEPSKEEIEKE

T15: Bbc1, P47068
T15 sequence (P47068 1-78, looked up): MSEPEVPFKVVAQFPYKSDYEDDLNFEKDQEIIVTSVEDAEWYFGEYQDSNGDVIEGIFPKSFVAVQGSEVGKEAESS

T16: Sla1-3, P32790
T16 sequence (P32790 344-424, looked up): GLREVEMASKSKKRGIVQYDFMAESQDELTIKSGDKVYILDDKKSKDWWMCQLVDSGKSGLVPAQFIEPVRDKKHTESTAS

T17: Lsb4, P32793
T17 sequence (P32793 402-468, looked up): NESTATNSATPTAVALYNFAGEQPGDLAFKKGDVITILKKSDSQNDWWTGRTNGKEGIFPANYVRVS

T18: Myo5, Q04439
T18 sequence (Q04439 1072-1160, looked up): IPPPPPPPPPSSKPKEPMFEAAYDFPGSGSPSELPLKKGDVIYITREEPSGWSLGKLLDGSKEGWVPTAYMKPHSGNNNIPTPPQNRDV

T19: Bud14, P27637
T19 sequence (P27637 247-328, looked up): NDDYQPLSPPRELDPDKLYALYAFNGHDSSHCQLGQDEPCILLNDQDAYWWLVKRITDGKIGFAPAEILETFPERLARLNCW

T20: Cyk3, Q07533
T20 sequence (Q07533 1-83, looked up): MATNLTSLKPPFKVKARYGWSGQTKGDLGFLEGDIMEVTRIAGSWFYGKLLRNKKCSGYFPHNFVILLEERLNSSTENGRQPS

T21: Fus1, P11710
T21 sequence (P11710 432-512, looked up): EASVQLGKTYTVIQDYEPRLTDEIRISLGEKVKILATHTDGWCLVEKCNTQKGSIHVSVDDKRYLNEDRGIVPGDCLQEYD


Each binder was assayed against T1, Lsb1, P53281 (assay: SPOT array). Settings: median of control spots 388.

| SPOT intensity | Binder |
| --- | --- |
| 0 | TPEIPPPLPPKIMVH |
| 800 | RTRRRPPPPPIPSTQ |
| 14 | RHLKLVPSTPMDIPW |

The binders below were run against T2, Bzz1-2, P38822 (assay: SPOT array). Settings: median of control spots 4538.

| SPOT intensity | Binder |
| --- | --- |
| 0 | TPEIPPPLPPKIMVH |
| 2960 | RTRRRPPPPPIPSTQ |
| 411 | RHLKLVPSTPMDIPW |

These binders were tested against GST (assay: SPOT array). Settings: median of control spots 978.

| SPOT intensity | Binder |
| --- | --- |
| 0 | TPEIPPPLPPKIMVH |
| 1 | RTRRRPPPPPIPSTQ |
| 0 | RHLKLVPSTPMDIPW |

Each binder was assayed against T3, Cdc25, P04821 (assay: SPOT array). Settings: median of control spots 969.

| SPOT intensity | Binder |
| --- | --- |
| 2 | TPEIPPPLPPKIMVH |
| 3 | RTRRRPPPPPIPSTQ |
| 14 | RHLKLVPSTPMDIPW |

These binders were tested against Sho1, P40073 (assay: SPOT array). Settings: median of control spots 1148.
Chain of Sho1, P40073 (P40073 287-367): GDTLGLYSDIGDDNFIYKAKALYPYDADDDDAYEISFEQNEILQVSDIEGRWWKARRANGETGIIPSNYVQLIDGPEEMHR

| SPOT intensity | Binder |
| --- | --- |
| 52 | TPEIPPPLPPKIMVH |
| 83 | RTRRRPPPPPIPSTQ |
| 72 | RHLKLVPSTPMDIPW |

These binders were tested against T4, Sla1-2, P32790 (assay: SPOT array). Settings: median of control spots 712.

| SPOT intensity | Binder |
| --- | --- |
| 0 | TPEIPPPLPPKIMVH |
| 3 | RTRRRPPPPPIPSTQ |
| 3 | RHLKLVPSTPMDIPW |

These binders were tested against T5, Boi2, P39969 (assay: SPOT array). Settings: median of control spots 1161.

| SPOT intensity | Binder |
| --- | --- |
| 0 | TPEIPPPLPPKIMVH |
| 0 | RTRRRPPPPPIPSTQ |
| 0 | RHLKLVPSTPMDIPW |

What follows are binders tested against T6, Abp1, P15891 (assay: SPOT array). Settings: median of control spots 935.

| SPOT intensity | Binder |
| --- | --- |
| 2 | TPEIPPPLPPKIMVH |
| 212 | RTRRRPPPPPIPSTQ |
| 37 | RHLKLVPSTPMDIPW |

What follows are binders tested against T7, Bzz1-1, P38822 (assay: SPOT array). Settings: median of control spots 4446.

| SPOT intensity | Binder |
| --- | --- |
| 0 | TPEIPPPLPPKIMVH |
| 1470 | RTRRRPPPPPIPSTQ |
| 6 | RHLKLVPSTPMDIPW |

Each binder was assayed against Bem1-2, P29366 (assay: SPOT array). Settings: median of control spots 4347.
Chain of Bem1-2, P29366 (P29366 139-227): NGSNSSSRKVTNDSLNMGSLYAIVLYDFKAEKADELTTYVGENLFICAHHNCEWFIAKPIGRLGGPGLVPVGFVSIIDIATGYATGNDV

| SPOT intensity | Binder |
| --- | --- |
| 0 | TPEIPPPLPPKIMVH |
| 79 | RTRRRPPPPPIPSTQ |
| 90 | RHLKLVPSTPMDIPW |

The binders below were run against T8, Boi1, P38041 (assay: SPOT array). Settings: median of control spots 1162.

| SPOT intensity | Binder |
| --- | --- |
| 0 | TPEIPPPLPPKIMVH |
| 1 | RTRRRPPPPPIPSTQ |
| 0 | RHLKLVPSTPMDIPW |

The binders below were run against T9, Pin3, Q06449 (assay: SPOT array). Settings: median of control spots 2171.

| SPOT intensity | Binder |
| --- | --- |
| 20 | TPEIPPPLPPKIMVH |
| 10 | RTRRRPPPPPIPSTQ |
| 329 | RHLKLVPSTPMDIPW |

These binders were tested against T10, Lsb3, P43603 (assay: SPOT array). Settings: median of control spots 406.

| SPOT intensity | Binder |
| --- | --- |
| 96 | TPEIPPPLPPKIMVH |
| 56 | RTRRRPPPPPIPSTQ |
| 0 | RHLKLVPSTPMDIPW |

These binders were tested against T11, Hof1, Q05080 (assay: SPOT array). Settings: median of control spots 4086.

| SPOT intensity | Binder |
| --- | --- |
| 2240 | TPEIPPPLPPKIMVH |
| 8 | RTRRRPPPPPIPSTQ |
| 59 | RHLKLVPSTPMDIPW |

These binders were tested against T12, Pex13, P80667 (assay: SPOT array). Settings: median of control spots 1341.

| SPOT intensity | Binder |
| --- | --- |
| 321 | TPEIPPPLPPKIMVH |
| 21 | RTRRRPPPPPIPSTQ |
| 99 | RHLKLVPSTPMDIPW |

The binders below were run against T13, Nbp2, Q12163 (assay: SPOT array). Settings: median of control spots 357.

| SPOT intensity | Binder |
| --- | --- |
| 0 | TPEIPPPLPPKIMVH |
| 107 | RTRRRPPPPPIPSTQ |
| 3 | RHLKLVPSTPMDIPW |

The binders below were run against T14, Hse1, P38753 (assay: SPOT array). Settings: median of control spots 1727.

| SPOT intensity | Binder |
| --- | --- |
| 1540 | TPEIPPPLPPKIMVH |
| 63 | RTRRRPPPPPIPSTQ |
| 134 | RHLKLVPSTPMDIPW |

What follows are binders tested against T15, Bbc1, P47068 (assay: SPOT array). Settings: median of control spots 796.

| SPOT intensity | Binder |
| --- | --- |
| 0 | TPEIPPPLPPKIMVH |
| 434 | RTRRRPPPPPIPSTQ |
| 1 | RHLKLVPSTPMDIPW |

These binders were tested against T16, Sla1-3, P32790 (assay: SPOT array). Settings: median of control spots 5475.

| SPOT intensity | Binder |
| --- | --- |
| 0 | TPEIPPPLPPKIMVH |
| 1980 | RTRRRPPPPPIPSTQ |
| 290 | RHLKLVPSTPMDIPW |

What follows are binders tested against T17, Lsb4, P32793 (assay: SPOT array). Settings: median of control spots 397.

| SPOT intensity | Binder |
| --- | --- |
| 42 | TPEIPPPLPPKIMVH |
| 69 | RTRRRPPPPPIPSTQ |
| 6 | RHLKLVPSTPMDIPW |

The binders below were run against Bem1-1, P29366 (assay: SPOT array). Settings: median of control spots 4282.
Chain of Bem1-1, P29366 (P29366 55-141): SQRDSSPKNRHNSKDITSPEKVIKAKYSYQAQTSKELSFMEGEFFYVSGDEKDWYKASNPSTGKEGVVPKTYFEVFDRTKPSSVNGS

| SPOT intensity | Binder |
| --- | --- |
| 0 | TPEIPPPLPPKIMVH |
| 0 | RTRRRPPPPPIPSTQ |
| 189 | RHLKLVPSTPMDIPW |

Each binder was assayed against T18, Myo5, Q04439 (assay: SPOT array). Settings: median of control spots 471.

| SPOT intensity | Binder |
| --- | --- |
| 87 | TPEIPPPLPPKIMVH |
| 243 | RTRRRPPPPPIPSTQ |
| 10 | RHLKLVPSTPMDIPW |

These binders were tested against Rvs167, P39743 (assay: SPOT array). Settings: median of control spots 2707.
Chain of Rvs167, P39743 (P39743 419-482): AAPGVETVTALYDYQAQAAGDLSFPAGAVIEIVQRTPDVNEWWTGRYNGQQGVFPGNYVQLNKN

| SPOT intensity | Binder |
| --- | --- |
| 0 | TPEIPPPLPPKIMVH |
| 99 | RTRRRPPPPPIPSTQ |
| 43 | RHLKLVPSTPMDIPW |

What follows are binders tested against Myo3, P36006 (assay: SPOT array). Settings: median of control spots 468.

| SPOT intensity | Binder |
| --- | --- |
| 304 | TPEIPPPLPPKIMVH |
| 487 | RTRRRPPPPPIPSTQ |
| 81 | RHLKLVPSTPMDIPW |

These binders were tested against T19, Bud14, P27637 (assay: SPOT array). Settings: median of control spots 956.

| SPOT intensity | Binder |
| --- | --- |
| 0 | TPEIPPPLPPKIMVH |
| 16 | RTRRRPPPPPIPSTQ |
| 8 | RHLKLVPSTPMDIPW |

What follows are binders tested against T20, Cyk3, Q07533 (assay: SPOT array). Settings: median of control spots 1451.

| SPOT intensity | Binder |
| --- | --- |
| 0 | TPEIPPPLPPKIMVH |
| 3 | RTRRRPPPPPIPSTQ |
| 0 | RHLKLVPSTPMDIPW |

Each binder was assayed against T21, Fus1, P11710 (assay: SPOT array). Settings: median of control spots 1200.

| SPOT intensity | Binder |
| --- | --- |
| 0 | TPEIPPPLPPKIMVH |
| 13 | RTRRRPPPPPIPSTQ |
| 1430 | RHLKLVPSTPMDIPW |
